Assay results reported in article PMC9993015.
Where two headings read alike, the source gives them in different places. One block for each substance: values may come before it.

Columns and labels:
[1] = biological target: histone H3 (Homo sapiens) (UniProt P68431); conditions: cited from earlier work
[2] = biological target: histone H3 (Homo sapiens) (UniProt P68431); conditions: cited from earlier work; remark: listed apart in the source
[3] = biological target: histone H4 (Homo sapiens) (UniProt P62805); conditions: cited from earlier work
[4] = biological target: histone H3 from calf thymus histones (UniProt P68432); assay: GST pull-down, immunoblot with α-H3, band level printed under lane; conditions: calf thymus histones (CTH); CTH input 5%

Substance: EED WD40 (from UniProt O75530)
Kd [1]: > 400 µM

Substance: 53BP1 tandem TUDOR domain (from UniProt Q12888)
Kd [2]: 2000 µM
Kd [3]: 20 µM

response [4]: 0.3
Substance: GST-ING3PHD (PHD domain of the H3K4me3 reader ING3) W385A
